Data as given in US20260258121A1, “USES OF POMC-SPECIFIC ANTIBODY AND MARCHF6” (KOREA UNIVERSITY RESEARCH AND BUSINESS FOUNDATION, priority 2023, published 2026).

T1: GST-POMC fragments (Homo sapiens, UniProt P01189)
T1 construct: purified GST, GST-POMC^1-76, GST-POMC^27-76, or GST-POMC^1-26 was incubated with 50 μl of glutathione Sepharose beads; made in house; Marchf63f came from an extract of transfected HEK293T cells
T1 sequence (P01189 1-76): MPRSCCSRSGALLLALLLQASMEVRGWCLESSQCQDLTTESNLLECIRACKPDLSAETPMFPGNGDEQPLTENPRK

T2: GST-POMC fragments (Homo sapiens, UniProt P01189)
T2 construct: purified GST, GST-POMC^1-76, GST-POMC^27-76, or GST-POMC^1-26 was incubated with 50 μl of glutathione Sepharose beads; made in house; Marchf63f came from an extract of transfected HEK293T cells
T2 sequence (P01189 27-76): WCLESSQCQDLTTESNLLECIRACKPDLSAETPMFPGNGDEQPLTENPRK

T3: GST-POMC fragments (Homo sapiens, UniProt P01189)
T3 construct: purified GST, GST-POMC^1-76, GST-POMC^27-76, or GST-POMC^1-26 was incubated with 50 μl of glutathione Sepharose beads; made in house; Marchf63f came from an extract of transfected HEK293T cells
T3 sequence (P01189 1-26): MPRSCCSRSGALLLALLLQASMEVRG

T4: POMC (Homo sapiens, UniProt P01189)
T4 construct: expressed in transfected cells; host or cells: HEK293T
T4 sequence (P01189 1-267): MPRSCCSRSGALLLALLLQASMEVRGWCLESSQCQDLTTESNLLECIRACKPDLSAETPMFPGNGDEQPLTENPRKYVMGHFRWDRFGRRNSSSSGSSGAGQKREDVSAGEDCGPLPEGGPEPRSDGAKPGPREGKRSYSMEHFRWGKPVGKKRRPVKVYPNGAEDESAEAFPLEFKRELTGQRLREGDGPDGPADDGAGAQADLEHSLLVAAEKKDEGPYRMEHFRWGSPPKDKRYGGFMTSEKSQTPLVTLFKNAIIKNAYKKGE


Tests used:
4-hydroxynonenal (4HNE) = assay: Immunoblotting of 4-HNE in POMCha-overexpressing N43/5 cells; format: cell-based, mouse; conditions: Fer-1 5 μM, 24 h
[1] = tested on: POMCha-overexpressing Marchf6-KO N43/5 cells; assay: Cell viability (CellTiter-Glo) of POMCha-overexpressing Marchf6-KO N43/5 cells; format: cell-based, mouse
Experimental: To understand the functional or mechanistic association between Marchf6-mediated POMC degradation and ferroptosis, lipid ROS levels were compared in N43/5 cells overexpressing POMCha using a lipid peroxidation sensor C11-BODIPY^581/591. Specifically, WT or Marchf6-KO N43/5 cells were transfected with pCH4129 (POMCha) for 48 hours, and the medium was replaced with a culture medium containing 2 μM C11-BODIPY^581/591 (Thermo Fisher Scientific, D3861). The cells were incubated at 37° C. for 30 minutes, and the fluorescent probe-treated cells were trypsinized, transferred to a 15 ml Falcon tube, washed three times with 1 ml of ice-cold PBS, and then transferred to an ice-cold round-bottom polystyrene tube (Corning, 352235). The amount of intracellular lipid ROS in […] was measured using CytoFLEX LX (Beckman Coulter) using fluorescein isothiocyanate (FITC) and analyzed using FlowJo v10.8.1 (BD Bioscience). In addition, cell viability was analyzed using a CellTiter-Glo luminescent 3D cell viability assay kit (Promega, G9241) and a multimode plate reader (TECAN, Spark 10 M). At this time, when the inhibition of cell death was evaluated, WT or Marchf6-KO N43/5 cells expressing pCH60 (empty vector) or pCH4129 (POMCha) (final concentration of […] each) were treated with 5 μM Fer-1, 20 μM Z-VAD-FMK or 40 μM Nec-1, and incubated for 24 hours, and cell viability was analyzed. In addition, the intracellular NADP(H) level was measured using a NADP/NADPH-Glo assay kit (Promega, G9081) and a multimode plate reader (TECAN, Spark 10 M). Further, LDH activity was measured using the Cytotoxicity Detection Kit Plus (LDH) (Sigma, 4744926001).
Through Examples, since Marchf6 mediated the degradation of POMC, it was expected that loss of Marchf6 would make POMC neurons hypersensitive to POMC-induced ferroptosis. Therefore, pCH60 (empty vector), pCH879 (Marchf63f), pCH880 (Marchf6flag^C9A), or pCH4170 (Marchf6flag^P460A) was transfected into WT or Marchf6-KO N43/5 cells, and the degree of ferroptosis induction in POMC neurons was analyzed as in Example 6-1.

GST-POMC fragments [2] = molecular target: T1, GST-POMC fragments; assay: GST pull-down assay; format: binding; conditions: extract of HEK293T cells expressing Marchf63f
Experimental: (§1) To clarify a POMC domain binding to the C4 domain of Marchf6, a Y2H assay was performed using a set of POMC fragments in which the C4 of Marchf6 and the C-terminus (Ct-) of POMC were cleaved. To this end, pCH4540 (C4), pCH4132 (POMC), or cleaved forms thereof pCH4235 (POMC^1-76), pCH4236 (POMC^1-87), pCH4237 (POMC^1-102), pCH4238 (POMC^1-137), and pCH4239 (POMC^1-176) were co-transformed into CHY726 and spotted on a SC(-Leu/-Trp) or SC(-Leu/-Trp/-His) plate and analyzed as in Example above. In addition, for interaction analysis between full-length Marchf6 and POMC, a split-Ub assay was performed by transforming S. cerevisiae CHY712 with pCH836 (Marchf6) or pCH4311 (Marchf6^P460A) as bait and pCH4203 (POMC^1-267), pCH4204 (POMC^77-267), or pCH4313 (POMC^1-76) as prey. In addition, for glutathione-S-transferase (GST) pull-down assay, […] of purified GST, GST-POMC^1-76, GST-POMC^27-76, or GST-POMC^1-26 was incubated with 50 μl of glutathione Sepharose beads (Cytiva, 17-0756-05) at 4° C. for 2 hours.
(§2) HEK293T cells transfected with pCH879 (Marchf63f) were lysed with a lysis buffer (50 mM Tris-HCl, 150 mM NaCl, 1 mM EDTA, 1% NP-40, pH 7.6) containing 1× protease inhibitor cocktail to obtain an extract, and the extract and the beads were further incubated at 4° C. for 2 hours, and then washed three times with 0.5 ml of GST-wash buffer (20 mM Tris-HCl, 137 mM NaCl, 2 mM EDTA, 0.5% NP-40, 10% glycerol, pH 7.6). Proteins binding to the beads were eluted with a 2× SDS-sample buffer, heated at 37° C. for 20 minutes, subjected to SDS-PAGE, Coomassie blue staining, and immunoblotting using anti-flag antibody.

GST-POMC fragments [3] = molecular target: T2, GST-POMC fragments; assay: GST pull-down assay; format: binding; conditions: extract of HEK293T cells expressing Marchf63f; remark: listed apart in the source
Experimental: as §1, §2

GST-POMC fragments [4] = molecular target: T3, GST-POMC fragments; assay: GST pull-down assay; format: binding; conditions: extract of HEK293T cells expressing Marchf63f; remark: listed apart in the source
Experimental: as §1, §2

POMC = molecular target: T4, POMC; assay: Chemical crosslinking-based reciprocal co-immunoprecipitation assay in HEK293T cells; format: binding; conditions: DSP crosslinking
Experimental: For the chemical crosslinking-based reciprocal co-immunoprecipitation assay, HEK293T cells were incubated at […] in a 10-cm dish plate and co-transfected with […] of pCH60 (empty vector) or pCH4129 (exogenous C-terminally hemagglutinin (ha)-tagged POMC: POMCha) and pCH879 (wild-type C-terminal triple flag-tagged Marchf6: Marchf63f) or pCH4170 (Marchf6^P460A) and incubated for 48 hours. The cells were washed with PBS, treated with 1 mM DSP [dithiobis(succinimidyl propionate)] (Thermo Fisher, 22585), and then the crosslinked cells were lysed and immunoprecipitated. The beads were washed three times with an IP-wash buffer (20 mM Tris-HCl, 137 mM NaCl, 0.1% NP-40, 2 mM EDTA, 10% glycerol) and bound proteins were eluted with a 2× SDS sample buffer. For immunoprecipitation with FLAG-agarose (Sigma-Aldrich, A2220), a 3× FLAG peptide (Protein Ark, GEN-3XFLAG-5) was used. Thereafter, the eluate was denatured and heated at 37° C. for 20 minutes, and SDS-PAGE and immunoblotting were performed using the corresponding antibody.

[5] = tested on: Gpx4, CHOP, Nox2, and Nox4; assay: Immunoblotting of Gpx4, CHOP, Nox2 and Nox4 in POMCha-overexpressing Marchf6-KO N43/5 cells; format: cell-based, mouse

Molecule	level of 4-hydroxynonenal (4HNE) increased by overexpression of POMCha, effect of treatment (4-hydroxynonenal (4HNE))	decreased viability of POMCha-overexpressing Marchf6-KO N43/5 cells, effect of treatment ([1]; 5 μM Fer-1, 24 hours)	binding to GST-POMC^1-76 (GST-POMC fragments [2])	binding to GST-POMC^27-76 (GST-POMC fragments [3])	binding to GST-POMC^1-26 (GST-POMC fragments [4])	binding of full-length POMC (co-immunoprecipitation) (POMC)	expression levels of Gpx4, CHOP, Nox2, and Nox4 proteins, effect of expression of construct [5]	reduced viability of POMCha-overexpressing Marchf6-deficient N43/5 cells, effect of ectopic expression ([1]; ectopic expression by transfection)
CCOC(=O)c1ccc(NC2CCCCC2)c(N)c1 [Fer-1, ferrostatin-1, reference compound]	restored	restored						
Marchf63f: wild-type C-terminal triple flag-tagged Marchf6 (membrane associated ring-CH-type finger 6), expressed from pCH879 (protein, UniProt Q6ZQ89 1-909, looked up, C-terminal triple FLAG tag, wild-type C-terminal triple flag-tagged Marchf6 (membrane associated ring-CH-type finger 6), expressed from pCH879) E3 ubiquitin-protein ligase …: MDTAEEDICRVCRSEGTPEKPLYHPCVCTGSIKFIHQECLVQWLKHSRKEYCELCKHRFAFTPIYSPDMPSRLPIQDIFAGLVTSIGTAIRYWFHYTLVAFAWLGVVPLTACRIYKCLFTGSVSSLLTLPLDMLSTENLLADCLQGCFVVTCTLCAFISLVWLREQIVHGGAPIWLEHAAPPFNAAGHHQNEAPVGGNGAENPAADQPANPAGENAVLGENPDAQDGQAEEEEEDNEEEDDAGVEDAADANNGAQDDMNWNALEWDRAAEELTWERMLGLDGSLVFLEHVFWVVSLNTLFILVFAFCPYHIGHFSLVGLGFEEHVQASHFEGLITTIVGYILLAITLIICHALATLVKFHRSRRLLGVCYIVVKVSLLVVVEIGVFPLICGWWLDICSLEMFDATLKDRELSFQSAPGTTMFLHWLVGMVYVFYFASFILLLREVLRPGVLWFLRNLNDPDFNPVQEMIHLPIYRHLRRFILSVIVFGSIVLLMLWLPIRIIKSLLPNFLPYNVMLYSDAPVSELSLELLLLQVVLPALLEQGHTRQWLKGLVRAWTVTAGYLLDLHSYLLGDQEENENSANQQVNNNQPARNNNAVPAGEGLHAAHQAILQQGGPVGFQPYRRPLNFPLRIFLLIVFMCITLLIASLICLTLPVFAGRWLMSFWTGTAKIHELYTAACGLYVCWLTIRAVTVLVAWMPQGRRVIFQKVKEWSLMIMKTLIVAVLLAGVVPLLLGLLFELVIVAPLRVPLDQTPLFYPWQDWALGVLHAKIIAAITLMGPQWWLKTVIEQVYANGIRNIDLHYIIRKLAAPVISVLLLSLCVPYVIASGAVPLLGVTAEMQNLVHRRIYPFLLMVVVLMGILSFQVRQFKRLYEHIKNDKYLVGQRLVNYERKSGKQGPSTPPPVSSQE			directly bound	very weakly bound	hardly bound	specifically bound	restored	restored
